{"source": "the DeepSol protein solubility set", "data": [{"experiment": "soluble on expression in E. coli; label from the status in PepcDB or PDB records", "values": [{"sequence": "MSSGVKASPHRFNRFEIKYLITEQDVPALREQLATRMSTDPLSPPGGYRVESLYFDSADLRCYTEKIEGLKFRRKLRIRTYGDGVLTPESTVSVEIKQRVNKVTQKRRLDLPFIYALALGDSTGAAVGEQVDVEKLLEISPENQHALIHEMASFAKNYRLRPIATTKYHREAFVGADAEESSRVTIDHGVSGRDRDFLLGQDLEDRPTVAQGLAVVEIKCDERVPFWLTDMTAQLEMSVIRMSKYCETIEAFHNRPASAFGAVDPIFLEHHHHHH", "soluble on expression in E. coli": "not soluble"}, {"sequence": "MSLMYSRKFQILKENIGLYHGDFMDFEVYDTEYMSIIFVKDRLDYTGKEIEPLWAFKTFDIQKDSIVVFRGRMEVTTENMKDLKDIKREKDIKTPIKSEDAINFVVEHFDVIDLKTIYLRQRLLVFIAKEVIESYNIKLKRDGDDLYFEDKKLSVCIACKGTVSAKIHLGINVKSKGAEHVKIIGLEDLGIKDIDKVMREIAINYAKEIDKIERDLRKTLPLIEGHHHHHH", "soluble on expression in E. coli": "soluble"}, {"sequence": "MTRPLIVAAVIGSALAWHGSAQAQHSQAVAPAEPCTPVVLIERTGTCYAQVDPRFVTTLYFPRMVTSAVSSDERYFRASIVDDSVIVRPARDIDADALGNLSITAGEMKVSIMLGVAGHSSEVLPQIDFRALSEAEVFDARVAAEAERLHQDVKREYERRHRELEGEVTREATQLVGERLLQRHEPVRIDAIARNDDNVIVRVERGVWVGHELYLFFTVQNRSGTPYRVTHVGVFEESEHRAVADAGRAGQVEFDSAAPLVAGLLGTVRVDQFGRGVVHVRDARGAAGRRMTLRVSEERGERPVSVGGLSWR", "soluble on expression in E. coli": "not soluble"}, {"sequence": "DITLSKLAMGGKPTPFGLDESELSNALMLLRDCPQVSLKGFHFHLMSHQLDVERHLALMQRYFQVVKTWQQEFELGELMINLGGGMGINYQNPEQHFPWMEFCDKLEFLIAKEQVQDWTLRFECGRFITAACGYYVMEVLDIKQNLGESYVIARGGTHHFRTPAAQSHDHPFVILKSEQHHEISHPIQHAQATFVGQLCTPKDVLARNQHVAHVDIGDYVVFTLAGAYAWNISHQNFLMHEPPIFHYF", "soluble on expression in E. coli": "not soluble"}, {"sequence": "MAEVAPNSTLYINNLNEKIKIDELRKSLVAVFKQFGEIVSVMCFRTLKMRGQAHVIFKELPAASAAREALNGFPFYEKPMRIQFAREDSDVVAQEKGTYIKREPKYLSEKILKKPKSRKKENGGDGPAPPNKILFCTNLPDSATAEMLEIMFNQFAGLKDIRMVPNRPGIAFVEFDTDSLAIPARTTLNNFKISAEHTMRVDYAKK", "soluble on expression in E. coli": "soluble"}, {"sequence": "SNTRNFVLRDEDGNEHGVFTGKQPRQAALKAANRGSGTKANPDIIRLRERGTKKVHVFKAWKEIVDAPKNRPAWMPEKISKPFVKKERIEKLE", "soluble on expression in E. coli": "soluble"}, {"sequence": "MSEEGPQVKIREASKDNVDFILSNVDLAMANSLRRVMIAEIPTLAIDSVEVETNTTVLADEFIAHRLGLIPLQSMDIEQLEYSRDCFCEDHCDKCSVVLTLQAFGESESTTNVYSKDLVIVSNLMGRNIGHPIIQDKEGNGVLICKLRKGQELKLTCVAKKGIAKEHAKWGPAAAIEFEYDPWNKLKHTDYWYEQDSAKEWPQSKNCEYEDPPNEGDPFDYKAQADTFYMNVESVGSIPVDQVVVRGIDTLQKKVASILLALTQMDQDKVNFASGDNNTASNMLGSNEDVMMTGAEQDPYSNASQMGNTGSGGYDNAW", "soluble on expression in E. coli": "soluble"}, {"sequence": "MSLRKGNEIELLVEGIEFPAKGFGFVDGLKVYAKNTFPGQKVFGRVTKKRKEYAEIRVSEVREKASYEEDQKCPHFGVCGGCSSQTIPYEKQLELKVEQVKDLFKEAEVPTGEFLGIETSPIQWEYRNKMEYTFGDEEKGGELTLGMHMKGKSFGIVNVDKCVLVDEDFRNILDTTVKYFREKGLPFYKIMPRTGYLRYLVVRKSVKTEEILVNLVTTTQIDFDLTEFTELIKGLNLKGKLKSIIHTESDALSEAVIPEKVNILYGDDFITENLLGLNFKISPFSFFQTNSLGAEKLYSIVRDFMGAADNKVVFDLYCGTGTIGQIAAGKASKVIGIELIEEAAMAANENAKLNGLNNCNFIAGDVAEVIKTVKDKPDIIILDPPRSGVHPKALDYVIKFNAPQIIYVSCNPKTLVTDLKVLEAKGYEIEKTLLMDMFPNTPHVETVVKLNKKEGHHHHHH", "soluble on expression in E. coli": "soluble"}, {"sequence": "MRRYFGTDGVRGEAGKPPLTPEFVLKLGQAAGAYFLAQEKRPVVLLAKDTRESSDLLEAALAAGLMSQGVRVEHLGVLPTPGVAHLTKALKATAGAVISASHNPYQDNGIKFFGPTGEKLPDGAEEEIERLLLEDHPTRGIGTVGDFREAERMYLDFLLAHAPDLTGLKVGLDLAHGATYRIGPKLFQKAGAEVMAFFNTPDGRNINRGCGSTHPEALSRFVVELGLDLGIAFDGDGDRVQFIDRKGRLFHGDHVLYLAALAFGEKGVVGTVMSNMALEVALKERGLAFHRAAVGDRYVLEKLKETGLALGGEPSGHVIFLRHHTTGDGLLTALLTLKALKALGGDLADWYEALPLYPQVLLNVRVSDKAKVMADPRLGEAVREAEARLGGRGRVNVRPSGTEPVVRVMVEAEEGAEEVARELAERVRALSQEAQAV", "soluble on expression in E. coli": "soluble"}, {"sequence": "MIPLSIRVPASTANVGPGFDSVGIALSLYLHVVVKEKSDKWQVIHSFEDSIPTDDKNLIVSTACKVCPSLSPHIIEVTSNIPLTRGLGSSASAIVAGIELANQLGKLNLTIDQKVQIATNFEGHPDNVAASILGGTVIGALDGKNVSVVRIESKELGVISLIPNEELNTDESRSVLPDVFPFHEAVKASAISNVLVAALCQKKWKVVGEMMERDHFHEPYRLELVPLLPSIRKCAKEFGAYGTALSGAGPSIFILTPYEKRQEIAEQLARVFTSMKVCELEIDHRGITVNKKEHIGL", "soluble on expression in E. coli": "not soluble"}, {"sequence": "MHKKLNPKSMKRENKKMVLRYLIESGPHSRVEIARKTGLAQSAIWRIIEELVNEGLVEEKGTATGRRRKAVTYGPTRSFITSIIYNVEVLETLVAVGFLDGAWRIIERFSTPKDFDEFKQRVTSSYENILKSHVLNKNISKVVFSLPGIVNTESKFLIHAPNLGWRNIDFRREFGNLDLEVLVENDSNLSLLAEEFFSQDVKESDVAFFLYFGEGIGGAISVNGKIVRGENFAAGEIGHVVLDVKNGKEVEEFLSISKLVERMEKFVELQGESLDEKFRYIKRLWFSGEKNVKETMEEFLQHVAVVLKNIIYFLNPGVIVLGGVVNDLWDTFGSFIKRELEKITDREIANVLIRDTIFKEISPSLVGGNVLAIEEFLRQIT", "soluble on expression in E. coli": "not soluble"}, {"sequence": "MAHHHHHHMSSKRTEGTAADEERRRTSAASSGSSSVSSTDSDEASSSVSDSSSSGSGSSSDSESSDSERPSSTPQRQSAAAAERATSTQQLQQQRHVQLNPELRFERPDKEYIPLPPLRDMQDMVKVLFLLSTDKKRYPDGRHRTLDYFRVAVEMFVTEVRQEYKRQYQQAQRNGRAMQRFTWKNSGELAICFACCCDNVKLLYDSLQPGPLKPLWDAFVGQLPPMLIVQSRVPETMLSSQTYHTKYMDWVKGGTRYGGEQSTANVRFPSVADRRVKVETYLRSGAGYKIEAVQVGSTPAAPAAVPAAVAPRPSLAAAAAPMQALETRAPFAGRLPGTGSAKVPVAPGVGGPRPPVKVPMKHVGGGVAHGSVTTAAAPPLASTSVKQMPPEMKHLFWLSVLAHVKGGEASRAFPDDRLEALPGLLRLCEMTEHTEEMCILMDVLAASSSGVQTVFERLGGLLSFRRFASHFIQSEEAEPLMQLVEQLARWRVAAWGSTSQQAWQTDMNQRRTRDLMWLRTLPLIPEAKRAAWGALLLVMEQRYIFKAPRPDDTTAVDNPLKRRRSEVELGDLHAVLSDNVDMQRWVVPRVNVFSAVRLPVELRVPPLCTKLEENTVRFLNAKREYAEKMQVTWRERLEKILSAQPRAPGPAVPVPLWYDPYALLRVASPQP", "soluble on expression in E. coli": "soluble"}, {"sequence": "AHHHHHHGSKLEIRDLSVGYDKPVLERITMTIEKGNVVNFHGPNGIGKTTLLKTISTYLKPLKGEIIYNGVPITKVKGKIFFLPEEIIVPRKISVEDYLKAVASLYGVKVNKNEIMDALESVEVLDLKKKLGELSQGTIRRVQLASTLLVNAEIYVLDDPVVAIDEDSKHKVLKSILEILKEKGIVIISSREELSYCDVNENLHKYSTKIDKKD", "soluble on expression in E. coli": "soluble"}]}]}
